Experimental data: publication PMC10234109 (2023)

T1: HCBD–GST (helical cargo-binding domain of mouse Myo6, residues 1052–1096) (Mus musculus (Mouse), UniProt Q64331)
T1 chain: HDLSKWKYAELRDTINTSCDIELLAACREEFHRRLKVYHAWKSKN

B1: GIPC3 PDZ (93–181), MBP-tagged (protein)
chain: GETKEVEVTKTEDALGLTITDNGAGYAFIKRIKEGSIINRIEAVCVGDSIEAINDHSIVGCRHYEVAKMLRELPKSQPFTLRLVQPRRA
B2: GIPC3 PDZ-GH2 domains (93–297), MBP-tagged (protein)
chain: GETKEVEVTKTEDALGLTITDNGAGYAFIKRIKEGSIINRIEAVCVGDSIEAINDHSIVGCRHYEVAKMLRELPKSQPFTLRLVQPRRAFDMIGQRSRSSKCPVEAKVSSGRETLRLRSGGAATVEEAPSDVEAAAARRVDDLLESYMGIRDPELAAAVVETARSSAGAQAFARGLDAVLGEFAFPDEFVVEVWAAIGEAHDACG

Molecular target: T1, HCBD–GST (helical cargo-binding domain …)
Experiment: GST pulldown, Coomassie-stained gel

Binder	binding result
B1	no binding
B2	binds
